Data taken from patent publication US20180030434A1 (Genentech, published 2018).

T1: human VEGF (8-109) (human, UniProt P15692 214-315, ALEXA FLUOR 488 or ALEXA FLUOR 647 succinimidyl ester label in the flow cytometry experiments)
T1 construct: range 8-109; The SPR section says only 'human VEGF'; also called VEGF antigen
T1 sequence (looked up): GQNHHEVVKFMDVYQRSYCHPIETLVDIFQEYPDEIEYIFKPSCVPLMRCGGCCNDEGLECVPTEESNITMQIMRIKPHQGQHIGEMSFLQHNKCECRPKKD


Columns and labels:
[1] = biological target: T2, Unizyme-tagged human IL-13 (33-146) (human, UniProt P35225 33-146, ALEXA FLUOR 488 or ALEXA FLUOR 647 succinimidyl ester label in the staining and flow cytometry experiments); assay: SPR (Biacore 3000), half-antibody from E. coli periplasmic extract captured by Fab Binder, human IL-13 as analyte, 25 C
T2 construct: range 33-146; The SPR section says only 'Human IL-13'; also called huIL-13; IL-13 antigen; not shown: Unizyme tag

human VEGF (8-109) = biological target: T1, human VEGF (8-109); assay: flow cytometry (SSC against labeled VEGF) of the anti-VEGF spiking experiment, bacterial antibody display; no unstained control is drawn in these panels
Protocol: For bacterial display, antibodies were expressed in a Lpp deletion (Δlpp) of strain 62A7. […] After 24 hours at 30° C., 1 OD aliquots were harvested and pelleted by centrifugation (4 minutes, 6500 rcf). Cells were resuspended in 100 μL PBS pH 7.4 with 2% BSA and 5 mM EDTA and incubated at 4° C. for 30 minutes. After initial incubation, SYTO® 41 or 9 nucleic acid stain (Molecular Probes, USA) was added to a final dilution of 1:100, and ALEXA⁴⁶⁸- or ALEXA⁶⁴⁷-labeled antigen added to a final concentration of 1-2 μM. Incubation was continued at 4° C. in darkness for 1 hour, at which time MgCl₂ was added to 10-20 mM final concentration. Unbound proteins were removed by washing 3 times with 1 mL volumes of PBS pH 7.4+20 mM MgCl₂. […] The FACS™ gating strategy included cells that were SYTO® dye-positive. Doublet discrimination gates were used to remove doublets and finally antigen-positive cells were sorted.

T2 sequence (P35225 33-146, form in doubt): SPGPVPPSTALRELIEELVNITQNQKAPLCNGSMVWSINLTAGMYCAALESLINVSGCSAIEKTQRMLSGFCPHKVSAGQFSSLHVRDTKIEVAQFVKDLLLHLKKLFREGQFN

| Kd [1] [pM] | koff [1] [s⁻¹] | kon [1] [M⁻¹ s⁻¹] | binding result (human VEGF (8-109)) | Binder |
| --- | --- | --- | --- | --- |
| 34 | 4.43e-05 | 1.3e+06 | – | anti-IL-13 half-antibody framework variant F27L (heavy chain) (antibody, name in Kabat numbering, V domains shown, Half-antibody) VH: QVTLRESGPALVKPTQTLTLTCTVSGLSLSAYSVNWIRQPPGKALEWLAMIWGDGKIVYNSALKSRLTISKDTSKNQVVLTMTNMDPVDTATYYCAGDGYYPYAMDNWGQGSLVTVSS VL: DIVMTQSPDSLSVSLGERATINCRASKSVDSYGNSFMHWYQQKPGQPPKLLIYLASNLESGVPDRFSGSGSGTDFTLTISSLQAEDVAVYYCQQNNEDPRTFGGGTKVEIK |
| 29 | 3.16e-05 | 1.11e+06 | – | anti-IL-13 half-antibody framework variant M4L (light chain) (antibody, name in Kabat numbering, V domains shown, Half-antibody) VH: QVTLRESGPALVKPTQTLTLTCTVSGFSLSAYSVNWIRQPPGKALEWLAMIWGDGKIVYNSALKSRLTISKDTSKNQVVLTMTNMDPVDTATYYCAGDGYYPYAMDNWGQGSLVTVSS VL: DIVLTQSPDSLSVSLGERATINCRASKSVDSYGNSFMHWYQQKPGQPPKLLIYLASNLESGVPDRFSGSGSGTDFTLTISSLQAEDVAVYYCQQNNEDPRTFGGGTKVEIK |

More lines, now with the values behind:

| Binder | Kd [1] [pM] | koff [1] [s⁻¹] | kon [1] [M⁻¹ s⁻¹] | binding result (human VEGF (8-109)) |
| --- | --- | --- | --- | --- |
| anti-IL-13 half-antibody WT (antibody, V domains shown, Half-antibody (one heavy and one light chain, knobs-into-holes Fc); Expressed in the E. coli periplasm; for SPR captured from periplasmic extract; also called anti-IL-13 WT; Half-Ab) VH: QVTLRESGPALVKPTQTLTLTCTVSGFSLSAYSVNWIRQPPGKALEWLAMIWGDGKIVYNSALKSRLTISKDTSKNQVVLTMTNMDPVDTATYYCAGDGYYPYAMDNWGQGSLVTVSS VL: DIVMTQSPDSLSVSLGERATINCRASKSVDSYGNSFMHWYQQKPGQPPKLLIYLASNLESGVPDRFSGSGSGTDFTLTISSLQAEDVAVYYCQQNNEDPRTFGGGTKVEIK | 40 | 5.09e-05 | 1.3e+06 | no binding |
| anti-IL-13 half-antibody framework variant E6Q (heavy chain) (antibody, name in Kabat numbering, V domains shown, Half-antibody) VH: QVTLRQSGPALVKPTQTLTLTCTVSGFSLSAYSVNWIRQPPGKALEWLAMIWGDGKIVYNSALKSRLTISKDTSKNQVVLTMTNMDPVDTATYYCAGDGYYPYAMDNWGQGSLVTVSS VL: DIVMTQSPDSLSVSLGERATINCRASKSVDSYGNSFMHWYQQKPGQPPKLLIYLASNLESGVPDRFSGSGSGTDFTLTISSLQAEDVAVYYCQQNNEDPRTFGGGTKVEIK | 38 | 4.26e-05 | 1.13e+06 | – |
